Changes are numbered by the printed parent chain. Numbers in names are those of the source. Read-outs that look alike come from different tables or passages of the source.
B1: 10A5: anti-STn mouse monoclonal, IgG2c κ, from mouse #4406; VH SEQ ID NO: 6, VL SEQ ID NO: 7 (antibody, V domains shown)
VH: QVQLKESGPGLVAPSQSLSITCTVSGFSLTSYGVSWVRQPPGKGLEWLGVIWGDGSTNYHSSLISRLSISKDNSKSQVFLKLNSLQTDDTATYYCARAFVYWGQGTLVTVSA
VL: QIVLTQSPAIMSASPGEKVTMTCSASSSVSYIHWYQQKSGTSPKRWIYDTSKLASGVPARFSGSGSGTSYSLTISSMEAEDAATYYCQQWSSNPPMLTFGAGTKLELK
B2: 7G9: anti-STn mouse monoclonal, IgG2b κ, from mouse #4407; VH SEQ ID NO: 12, VL SEQ ID NO: 9 (antibody, V domains shown)
VH: B1 VH with S17N, S35N, S62A, S68I, D72E, D88N, A96T, R97K, A98G
VL: QIVLTQSPAIMSASPGEKVTMTCSASSSVSYMHWYQQKSGTSPKRWIFDTSKLASGVPARFSGSGSGTSYSLTISSMEAEDAATYYCQQWSSNLLTFGAGTKLELK
B3: 2D4: anti-STn mouse monoclonal, IgG2b κ, from mouse #4407; VH SEQ ID NO: 10, VL SEQ ID NO: 11 (antibody, V domains shown)
VH: B1 VH with K5Q, T30I, S35N, H60Q, S62A, S68I, A96T, R97K, A98G, V100A
VL: B2 VL with Y35F, F48Y
B4: 8C11: anti-STn mouse monoclonal, IgG2b κ, from mouse #4407; VH SEQ ID NO: 8, VL SEQ ID NO: 9 (antibody, V domains shown)
VH: B1 VH with S62A, S68I, A96T, R97K, A98G, V100T
VL: B2 VL
B5: S3F: 3F1 variable domains combined with IgG2a constant domains; heavy chain SEQ ID NO: 63, light chain SEQ ID NO: 64 (antibody)
heavy: QVQLQQSDAELVKPGASVKISCKASGYTFTDHAIHWVKQKPEQGLDWIGYISPGNGDIKYNEKFKDKVTLTADKSSSTACMHLNSLTSEDSAVYFCKRSLLALDYWGQGTTLTVSSAKTTAPSVYPLAPVCGDTTGSSVTLGCLVKGYFPEPVTLTWNSGSLSSGVHTFPAVLQSDLYTLSSSVTVTSSTWPSQSITCNVAHPASSTKVDKKIEPRGPTIKPCPPCKCPAPNLLGGPSVFIFPPKIKDVLMISLSPIVTCVVVDVSEDDPDVQISWFVNNVEVHTAQTQTHREDYNSTLRVVSALPIQHQDWMSGKEFKCKVNNKDLPAPIERTISKPKGSVRAPQVYVLPPPEEEMTKKQVTLTCMVTDFMPEDIYVEWTNNGKTELNYKNTEPVLDSDGSYFMYSKLRVEKKNWVERNSYSCSVVHEGLHNHHTTKSFSRTPGK
light: DIVMTQSHKFMSTSVGDRVSITCKASQDVGTNIAWYQQKPGRSPKVLIYSASTRHTGVPDRFTGSGSGTDFTLTISNVQSEDLTDYFCQQYSSFPLTFGVGTKLELKRADAAPTVSIFPPSSEQLTSGGASVVCFLNNFYPKDINVKWKIDGSERQNGVLNSWTDQDSKDSTYSMSSTLTLTKDEYERHNSYTCEATHKTSTSPIVKSFNRNEC

Assays:
[1] = test system: MDA-MD-231 STn cells; assay: Antibody internalization by fluorescence microscopy cell counts, STn+ cells; assay type: cell-based, human; settings: for Net cell counts of cells showing positive internalization: 10 μg/ml antibody; for level of internalization (comparison of antibodies): microscopy
Experimental: 6-well culture dishes were prepared with collagen-coated coverslips in the center of 4 wells of each dish. Wells were seeded with either 10^5 cells/well of MDA-MD-231 cells or with 10^6 cells/well of MDA-MD-231 STn cells (expressing STn) and cultured for 24 hours.
10 μg/ml antibody solutions were prepared in cell culture media. A separate solution was prepared for each of LA22 antibody (EMD Millipore, Burlington, Mass.) as a positive control for cell surface binding, S3F antibody (internal reagent) as a positive control for STn binding, 8C11, 2D4, 7G9, 10A5 and GB26.16 (QED Bioscience, San Diego, Calif.) as a negative control. Media were removed from wells and 100 μl of each antibody solution was added to separate coverslips. Coverslips were covered with parafilm and incubated for 30 minutes at 4° C. to allow antibody binding. Antibody solutions were removed by washing and fresh media was added to each well. Cells were incubated at 37° C. for 15, 30, 60 or 240 min to allow for antibody internalization.
After incubation, cells were prepared for microscopy. Cells were washed with PBS and fixed with paraformaldehyde fixation buffer (PFA) containing 3% paraformaldehyde and 2% sucrose in PBS for 15 minutes at room temperature. Cells were rinsed again in PBS and treated with blocking buffer made up of PBS with 1% bovine serum albumin (BSA) or with permeabilization buffer made up of blocking buffer with 0.1% TX-100. Cells were incubated in for 30 min at room temperature, rinsed in PBS and treated with secondary antibody (ALEXA FLUOR® 488-labeled goat-anti-mouse IgG) for 2 hours at room temperature. Cells were rinsed again in PBS and treated with DAPI nuclear stain for 5 min at room temperature in the dark. Cells were rinsed again in PBS and mounted for fluorescence microscopy.

[2] = test system: MDA-MB-231-STn+ cells; assay: Cell viability assay with secondary antibody-drug conjugate (2° ADC), STn+ cells; assay type: cell-based, human; settings: for IC50: MDA-MB-231-STn+ cells
Experimental: (§1) Cell viability assays are performed to screen anti-STn antibodies of the present invention in the presence and absence of secondary antibody-drug conjugates (2° ADCs). The purpose of the screen is to identify the ability of each anti-STn antibody to inhibit cell growth. Antibodies with potent cell growth inhibition are used to design direct antibody-drug conjugates (ADCs). Using such secondary antibody-drug conjugates (2° ADCs) in cell-based cytotoxic assays can quickly pre-screen many ADC candidates against tumor cells. Based on the assay, a naked antibody candidate is directly added to cells in the presence of a 2° ADC. Internalization of the mAb/2° ADC complex into cells that express a high density of the targeted antigen can achieve a dose-dependent drug release within the cells, causing a cytotoxic effect to kill the cells (e.g., tumor cells), while cells expressing a low density of the targeted antigen are not affected (e.g., normal cells).
(§2) To perform cell viability assays, cell lines described in the present application (MDA-MB-231 parental, MDA-MB-231-STn+, and OV-90) are prepared and cultured for the assays. The cell culture is optimized for cell density by plating different densities of cells (e.g., 2,000, 4,000 and 7,500 per well) on a 96-well plate and observing the cell growth for 96 hours. The plating condition in which cells reach around 90% confluence at the end of the 96 hours is identified and the optimal cell number is then used in the final viability assay.
(§3) Duplicate or triplicate cell plates for each cell line are used for testing each antibody candidate.
For cell viability assays, data points are collected for each antibody candidate with duplicates for each data point. Each antibody candidate is diluted in serial concentrations from 0.3 pM to 20 nM.
Alternatively, data points are collected for each antibody candidate with triplicates for each data point. Each antibody candidate is diluted in serial concentrations from 1 pM to 20 nM.
(§4) Cell viabilities are measured by Cell-Titer Glo luminescence based assays.
Three anti-STn monoclonal antibodies (anti-STn antibodies S3F, 7G9 and 2D4) and an anti-EGFR monoclonal antibody LA22 were tested for internalization. Six plates of cell culture, two per cell line (MDA-MB-231 parental, MDA-MB-231-STn+, and OV-90), were used to assay the antibody candidates. Each plate can be used to assay the four antibody candidates simultaneously. A secondary anti-IgG antibody conjugated to MMAF (monomethyl auristatin phenylalanine), a non-permeable Aurastatin analog, was used as the 2° ADC. Cell viability was then measured using CellTitreGlo Luminescent Cell Viability Assay (Promega, Madison, Wis.).

[3] = test system: OV-90 cells; assay: Cell viability assay with secondary antibody-drug conjugate (2° ADC), OV-90; assay type: cell-based; settings: with 2° ADC Fab αMFc-CL-MMAF
Experimental: as §1, §2, §3
For cell viability assays, data points are collected for each antibody candidate with duplicates for each data point. […]
as §4
Three anti-STn monoclonal antibodies (anti-STn antibodies S3F, 7G9 and 2D4) and an anti-EGFR monoclonal antibody LA22 were tested for internalization. […] Cell viability was then measured using CellTitreGlo Luminescent Cell Viability Assay (Promega, Madison, Wis.).

[4] = with 2° ADC Fab αMFc-CL-MMAF, CellTitreGlo, read-out: IC50 (nM), secondary internalization assay

Molecule | Net cell counts of cells showing positive internalization ([1]; 15 min at 37° C.) | Net cell counts of cells showing positive internalization ([1]; 30 min at 37° C.) | Net cell counts of cells showing positive internalization ([1]; 60 min at 37° C.) | Net cell counts of cells showing positive internalization ([1]; 4 hr at 37° C.) | Net cell counts of cells showing positive internalization ([1]; 4 hr, no perm) | IC50 [2, 4] | activity in MDA-MB-231-STn+ cells ([2]; with 2° ADC Fab αMFc-CL-MMAF) | activity in OV-90 cells [3] | level of internalization (comparison of antibodies) [1] | IC50 ([2]; unit inferred, b641, read-out: IC50 in the presence of Fab αMFc-CL-MMAF)
B1 | 267 | 346 | 75 | 93 | 97 |  |  |  |  | 
B2 | 458 | 154 | 126 | 61 | 145 | 0.181 nM | demonstrate activity | lack of effect |  | 
B3 | 1340 | 413 | 533 | 325 | 536 | 0.056 nM | demonstrate activity | lack of effect | greatest levels of internalization | 
B4 | 934 | 297 | 122 | 49 | 160 |  |  |  | greatest levels of internalization | 
B5 | 426 | 410 | 350 | 259 | 276 | 0.058 nM | demonstrate activity | modest activity |  | 0.124 nM

Source: patent US20180280504A1, “GLYCAN-INTERACTING COMPOUNDS AND METHODS OF USE” (SIAMAB THERAPEUTICS, INC., priority 2014, published 2018)
